# From the DeepSol protein solubility set
# Assay: soluble on expression in E. coli; label from the status in PepcDB or PDB records
row,Sequence,soluble on expression in E. coli
1,MSLKILLKQAMVYPITSQKFQGDVLVIGEKIAEVKPFIQPTQDMTVIDARALHLLPGFIDVHTHLGLYDEGTGWAGNDANETSEVSTPHIRSLDGIHPLDIAFQDAVQNGITTVHVMPGSQNIIGGTTCVIKTAGTCIDHMIIQEPAGLKIAFGENPKKVHSNGTKESITRMGIMGLLRESFYEAQHYGHEADFRMLPILKALRREIPVRIHAHRADDISSALRFATEFNLDLRIEHCTEGHFIVEELSKHNLKVSVGPTLTRRSKIELKNKTWDTYHILSKSGVEVSITTDHPYTPIQYLNLCAAVAVREGLDEKTALEGITIFPARNLRLEDRIGSIEVGKDADLVLWTHHPFHYLAKPVLTMIDGKIIYKKNKKNEGHHHHHH,not soluble
2,MGSDKIHHHHHHMRLPDAGFRRYIVVAGRRNVGKSSFMNALVGQNVSIVSEYAGTTTDPVYKSMELYPVGPVTLVDTPGLDDVGELGRLRVEKARRVFYRADCGILVTDSEPTPYEDDVVNLFKEMEIPFVVVVNKIDVLGEKAEELKGLYESRYEAKVLLVSALQKKGFDDIGKTISEILPGDEEIPYLGDLIDGGDLVILVVPIDLGAPKGRLIMPQVHAIREALDREAIALVVKERELRYVMENIGMKPKLVITDSQVVMKVASDVPEDVELTTFSIVESRYRGDLAYFVESVRKIEELEDGDTVVIMEGCTHRPLTEDIGRVKIPRWLVNHTGAQLNFKVIAGKDFPDLEEIEGAKLIIHCGGCVLNRAAMMRRVRMAKRLGIPMTNYGVTISYLHGVLDRAIRPFREEVKV,not soluble
3,MSLKIYLFKPYDVIGFGGLKNFSAGETHIQKSIFPPPIMRFFHIFNSVYGVFLYKDGNLFLPVPSDCLVKRKEESGKAKISPLEFPPLIRGDLEAYERANGFISFSDLMNKYAKNIDGFKIYLLEEFLKKESRVGITMDKERRVVRSIKEINRKEEKGLLYSQDFFRFNDGVKLAVLGEINKDIVISGKQYFRMGGEGKIVSFKHTEHINSFLEGKIKIKNGNYYKFYCLTHAYINNGIIESKIQTICIEGINFEVEWLYNGGVEYVSGYNKPFLEMLRPGSVLILKAKNEGEIQRLNQISTNVPISNIKNFLNRGWNSGIIVEGVKEGHHHHHH,soluble
4,MLLMMVVGLTAGVLAGCANPKDTTEEFLTAIQKGDIEKARTFVESDKEFNKLNEKTDDAEAKAMLSAITKNFKFEKLEEVSKKDDKAEVKVKITSADLSVAVTKAVGEVMPMAFASAFSEDKEQSEKAIEKTMTSTIIKNLTDKDAAMATREVTLNLKKDKDGDYKIVADDNLKEVLFANAKSLEKMFGGK,not soluble
5,MAHHHHHHMCLSNLSYFFGAFEAVEPARSENDGGYASDWLSTLYSSLGLVLAHYLFEDNVEATVEATRILGNISYTNAGRDWMEANHCDEVTVLFLGHEDLRVVYNCCGVLLNLTAASPCRVVQDPELLQTMLSYTSRYTDQDRVEAVTALEEARLRQEQQELQQQRRGGDMKELVSEASSHVAQISDIVEKLLLNVHGVLHASAI,not soluble
6,MFTKSHLALVIGAVLAAPAVANVQTDEHLVVEGREFGYKADTNSTAMRMEMTQLETPGQVAVIDETVIDEQRASTLGEVLRNDASVSAGGTSRNRERFSLRGFELSSSDGFLRDGRQHWSHYRQPIEL,not soluble
7,MGHHHHHHSHMFLQYYLNEQGDRVYTLKKFDPMGQQTCSAHPARFSPDDKYSRHRITIKKRFKVLMTQQPRPVL,not soluble
8,KVQKIIVSEAGASVYSASELAAKEFPNMDVSLRGAVSIARRLQDPLAELVKIDPKSIGVGQYQHDVSQSMLVKRLDAIVEDCVNAVGVDVNTASAALLTRVAGLSSTIAQNIVDFRDENGRFEARTTLKKVPRLGPKAFEQCAGFLRIMDGKNPLDASAVHPEAYPVVKAIAEKNRKDIKALIGDSTFLKGLHAVDYTDEHFG,not soluble
9,MAVLWRLSAVCGALGGRALLLRTPVVRPAHISAFLQDRPIPEWCGVQHIHLSPSHHSGSKAASLHWTSERVVSVLLLGLLPAAYLNPCSAMDYSLAAALTLHGHWGLGQVVTDYVHGDALQKAAKAGLLALSALTFAGLCYFNYHDVGICKAVAMLWKL,not soluble
10,MGSDKIHHHHHHMSMDKELITAQALAEALHLSVETIWRYTREKKIPCIELGNKQYRYKKDDVIKALSNGSIQESASSYETQEPRKLTYQDYLLLPEEPGYHFEILDGMLIKEPAPNVLHQRVSRRLQRILEDYFWKVDPKGEVFDAPLDVTLHDVNVVQPDLLYVASEQEVIVKDTRIDGPPMLVVEIMSPSTSRKDRLQKRRIYQEARVEHYWLVNPQEKMLECFAWRDGVYALVAGGMEEELVEHPDFPGLSIALRALWNREI,not soluble
11,EGSIGNGLDLTGILFGNIDSEGRLLQDDDGEGRGGTGFDAELRENIGSLSKLGLDSMLLEVIDLKEA,soluble
12,MYELNICHLYPDLLNLYGDRGNIMALKMRCVWRGINVNVSNISIGDKFDAEAYDIIFLGGGQDYEQEIIQDDLLNQKGEEIRNAVKNDKVFLAICGGYQLLGSYYKTWDGKEIHFLNALDLWTIGGKERMIGNFVFECDFLKNDHYDGKIVGFENHSGRTYLGPGVKPLGKIIKGYGNNGEDGFEGAIYKNVYCSYSHGSLLPKNPALADHLISVALKQKYKDFVSLSGIDDEFENLAHDTTIKRIMG,soluble
13,NTPYLRPEMFPELAILQQNWQVIRDEGLHLQQLEQIKAADKYNDAGFNSFFKTGWKRFYLKWYEDAHPSASQLCPQTTALLRDIPSVKAAMFATLPDGSRLPRHRDPYAGSLRFHLGLATPNDDRCFIEVDGQRYSWRDGEGVLFDETYIHYAENTSGENRLILFCDIERPMRYRWAQKVNHWLGRHLMSAASAPN,not soluble
14,MDYEIRQEQKRKIAGFHMVGPWEHTVKQGFEQLMTWVDRQRIVPVEWIAVYYDNPDVVPAEKLRCDTVVSVAENFILPDNSEGVIVTAIEGGEYATAVARVEDRDFAKPWERFFDVLEQDSAYQIASAPCFETYLNNGMEDGYWDIEMYIPVQRK,not soluble
15,AEQKTLHIYNWSDYIAPDTVANFEKETGIKVVYDVFDSNEVLEGKLMAGSTGFDLVVPSASFLERQLTAGVFQPLDKSKLPEWKNLDPELLKLVAKHDPDNKFAMPYMWATTGIGYNVDKVKAVLGENAPVDSWDLILKPENLEKLKSCGVSFLDAPEEVFATVLNYLGKDPNSTKADDYTGPATDLLLKLRPNIRYFHSSQYINDLANGDICVAIGWAGDVWQASNRAKEAKNGVNVSFSIPKEGAMAFFDVFAMPADAKNKDEAYQFLNYLLRPDVVAHISDHVFYANANKAATPLVSAEVRENPGIYPPADVRAKLFTLKVQDPKIDRVRTRAWTKVKSGK,soluble
16,MGHHHHHHSHMKQKLLVTLLGLSALGASPVFAANTNVDLAEDAYIYGYSIDEAYKFFYHTAVENNYPLNRFQNIRALADDSYTAHPTINNDTLHLMGWLDVAAEPVIVSVPDMDEGRYWILHTMDMGHYTNAAFSSRTRGTKGGQFMFAAQDWQGEVPASVDEVVRVDSNLVKLMGRIMAVNDEDAKVALNYMDQWNIRTLSEYLGKNGPKPVQRTYPDPKKSTWLERVNFVLCDGSMGNADKQWLDKYQSIGVEPCKTDFTPEQLKLAKVGEKKGMEHLVELAPKMTDARTLLGTRDTLGDAPRDIFAEGTYLGQWGLPPIEASYRKSDFDSIGQKLDGSKHDYVMRFKAPNVSEFWSVTIYGNDNRLMAKNDLNRHSRGDRTMKADKDGYYTIYMSANEKGRADDPNFLPVPEKPFYAIMRFYGADDAIQSGEYQMPEIKVVK,soluble
17,MSLSDRDSTLSRLKSAGENGDVEAQYALGLMYLYGEILDVDYQQAKIWYEKAADQNDPRAQAKLGVMYANGLGVNQDYQQSKLWYEKAAAQNDVDAQFLLGEMYDDGLGVSQDYQHAKMWYEKAAAQNDERAQVNLAVLYAKGNGVEQDYRQAKSWYEKAAAQNSPDAQFALGILYANANGVEQDYQQAKDWYEKAAEQNFANAQFNLGMLYYKGEGVKQNFRQAREWFEKAASQNQPNAQYNLGQIYYYGQGVTQSYRQAKDWFEKAAEKGHVDAQYNLGVIYENGEGVSQNYQQAKAWYEKAASQNDAQAQFELGVMNELGQGESIDLKQARHYYERSCNNGLKKGCERLKELLYKEGHHHHHH,soluble
18,SDNISLEYFEEAVCYMLQHPQVKGPGIGLLGISLGADICLSMASFLKNVSATVSINGSGISGNTAINYKHSSIPPLGYDLRRIKVAFSGLVDIVDIRNALVGGYKNPSMIPIEKAQGPILLIVGQDDHNWRSELYAQTVSERLQAHGKEKPQIICYPGTGHYIEPPYFPLCPASLHRLLNKHVIWGGEPRAHSKAQEDAWKQILAFFCKHLGGTQKTAVPKL,soluble
19,MTAAEHGLHAPAYAWSHNGPFETFDHASIRRGYQVYREVCAACHSLDRVAWRTLVGVSHTNEEVRNMAEEFEYDDEPDEQGNPKKRPGKLSDYIPGPYPNEQAARAANQGALPPDLSLIVKARHGGCDYIFSLLTGYPDEPPAGVALPPGSNYNPYFPGGSIAMARVLFDDMVEYEDGTPATTSQMAKDVTTFLNWCAEPEHDERKRLGLKTVIILSSLYLLSIWVKKFKWAGIKTRKFVFNPPKPRK,soluble
20,MFFMYFTNYGYRLNQIKKGSDQHWLFLPGGPGLGSEYLASFCDKLTLQGTVSLVDFPKDGNNSEGQLDFVSWQEGLISLLKSLNKPILVTHSFSGMFTLNFPEIENHLSGLVLMNTTTTNSFFQHVNEMRQKHNLPDLVPAASQYHLYPSNETYKKFWDTYKHYCFTQEELPIGEQMMELFAYNNESYHYAIEHFYNDFHYKWHPQTIPTMTIASELDYICPPAIFIQDKNFQCQNVINKVIYKAGHCPWILHLEQVQKCFDEFSGMIQEINIERIL,not soluble
21,MYPDHMFKYVIIGDGGVGKSNLLLRFTDELFDPIHTTTLGVEFGYKDLQIDKYKVRLRVWDTCGQENFRSIIRAYYRNALGALLVYDITCRKSFVHLEQWLSDLRQHGHPEMVIMLIGNKSDLKAVRDVTTEEGEAFAKKNGLTFMETSAKANKHVEKAFVNTAHEIYKKLKLGVIEDDDVKKKKIGIILRSRSGKEKKCC,soluble
22,MKIIITGEPGVGKTTLVKKIVERLGKRAIGFWTEEVRDPETKKRTGFRIITTEGKKKIFSSKFFTSKKLVGSYGVNVQYFEELAIPILERAYREAKKDRRKVIIIDEIGKMELFSKKFRDLVRQIMHDPNVNVVATIPIRDVHPLVKEIRRLPGAVLIELTPENRDVILEDILSLLERLEHHHHHH,not soluble
23,YLDLWQTQDAKIRAKLAAVFQAEQNLNEAAIAYCLARALPEETAIFFANSMVVRYAEFFWQLNDQQILPYFNRGANGIDGTLSTALGIAENHSPAVLLTGDLALLHDINGFLTLSKFTGSLTIIVINNQGGGIFEMLPIAEEKDIFEDYFATPQTVEFSKVCDLYGIEYQAIQTKADLMQTCAILPPRGVRLLEVKTNRNQAMTWLKDLFQ,not soluble
24,VFIEERLEELSTFADSSDLTKIEYGNKKIGIITSGIAYNYAKEVIPDASFLKFGMSYPLPEEKIKEFVENCDKVYVFEELEPIFEQKIKSMGLNVIGKEIFPIIGELSSEIIRNALLNESKEVIDKFDELPQRPPVLCPGCHHRGPFYVLKKLKLHVAGDIGCYTLGGFGPLNAIDTTICMGASIGMAH,not soluble
25,MLRQIGEFYHQGEKDDTSRVWMTCWHHGGRILASCGDDKAVRVWSLVGEPDSKMRLECRTTLDDSHTRAVRSVAFSNDGKCLVSASFDASVVVYQQEDGEFAEVNKLEGHESEVKCAVFSKSDEFLATCSRDKSVWFWQQDEDEDFSVSSILQPHTQDVKQVAWHPTEDLLVSCSYDSSIRFYRFDGEDWVTQQKIDGCHVGTVWSIAFDTEGHRLVTVGEDHCIQLFVRENIGSKSADQDTWKSVARYDVENTRWPLYSVAWNSTNDVIATGGGDCKIRLFKISSTPESPVIEHLGVVGRHELDVNHVAWNPNPKFSNLLTSASDDGTIRLWELEI,not soluble
